Data taken from IntAct's records for PubMed 7657594.

B1: Vascular endothelial growth factor receptor 1 (Homo sapiens), P17948 (parent)
chain: MVSYWDTGVLLCALLSCLLLTGSSSGSKLKDPELSLKGTQHIMQAGQTLHLQCRGEAAHKWSLPEMVSKESERLSITKSACGRNGKQFCSTLTLNTAQANHTGFYSCKYLAVPTSKKKETESAIYIFISDTGRPFVEMYSEIPEIIHMTEGRELVIPCRVTSPNITVTLKKFPLDTLIPDGKRIIWDSRKGFIISNATYKEIGLLTCEATVNGHLYKTNYLTHRQTNTIIDVQISTPRPVKLLRGHTLVLNCTATTPLNTRVQMTWSYPDEKNKRASVRRRIDQSNSHANIFYSVLTIDKMQNKDKGLYTCRVRSGPSFKSVNTSVHIYDKAFITVKHRKQQVLETVAGKRSYRLSMKVKAFPSPEVVWLKDGLPATEKSARYLTRGYSLIIKDVTEEDAGNYTILLSIKQSNVFKNLTATLIVNVKPQIYEKAVSSFPDPALYPLGSRQILTCTAYGIPQPTIKWFWHPCNHNHSEARCDFCSNNEESFILDADSNMGNRIESITQRMAIIEGKNKMASTLVVADSRISGIYICIASNKVGTVGRNISFYITDVPNGFHVNLEKMPTEGEDLKLSCTVNKFLYRDVTWILLRTVNNRTMHYSISKQKMAITKEHSITLNLTIMNVSLQDSGTYACRARNVYTGEEILQKKEITIRDQEAPYLLRNLSDHTVAISSSTTLDCHANGVPEPQITWFKNNHKIQQEPGIILGPGSSTLFIERVTEEDEGVYHCKATNQKGSVESSAYLTVQGTSDKSNLELITLTCTCVAATLFWLLLTLFIRKMKRSSSEIKTDYLSIIMDPDEVPLDEQCERLPYDASKWEFARERLKLGKSLGRGAFGKVVQASAFGIKKSPTCRTVAVKMLKEGATASEYKALMTELKILTHIGHHLNVVNLLGACTKQGGPLMVIVEYCKYGNLSNYLKSKRDLFFLNKDAALHMEPKKEKMEPGLEQGKKPRLDSVTSSESFASSGFQEDKSLSDVEEEEDSDGFYKEPITMEDLISYSFQVARGMEFLSSRKCIHRDLAARNILLSENNVVKICDFGLARDIYKNPDYVRKGDTRLPLKWMAPESIFDKIYSTKSDVWSYGVLLWEIFSLGGSPYPGVQMDEDFCSRLREGMRMRAPEYSTPEIYQIMLDCWHRDPKERPRFAELVEKLGDLLQANVQQDGKDYIPINAILTGNSGFTYSTPAFSEDFFKESISAPKFNSGSSDDVRYVNAFKFMSLERIKTFEELLPNATSMFDDYQGDSSTLLASPMLKRFTWTDSKPKASLKIDLRVTSKSKESGLSDVSRPSFCHSSCGHVSEGKRRFTYDHAELERKIACCSPPPDYNSVVLYSTPPI

Variants of: B1
Details: with p85a_human PIK3R1, P27986
Sequence of p85a_human PIK3R1, P27986 (P27986 whole entry): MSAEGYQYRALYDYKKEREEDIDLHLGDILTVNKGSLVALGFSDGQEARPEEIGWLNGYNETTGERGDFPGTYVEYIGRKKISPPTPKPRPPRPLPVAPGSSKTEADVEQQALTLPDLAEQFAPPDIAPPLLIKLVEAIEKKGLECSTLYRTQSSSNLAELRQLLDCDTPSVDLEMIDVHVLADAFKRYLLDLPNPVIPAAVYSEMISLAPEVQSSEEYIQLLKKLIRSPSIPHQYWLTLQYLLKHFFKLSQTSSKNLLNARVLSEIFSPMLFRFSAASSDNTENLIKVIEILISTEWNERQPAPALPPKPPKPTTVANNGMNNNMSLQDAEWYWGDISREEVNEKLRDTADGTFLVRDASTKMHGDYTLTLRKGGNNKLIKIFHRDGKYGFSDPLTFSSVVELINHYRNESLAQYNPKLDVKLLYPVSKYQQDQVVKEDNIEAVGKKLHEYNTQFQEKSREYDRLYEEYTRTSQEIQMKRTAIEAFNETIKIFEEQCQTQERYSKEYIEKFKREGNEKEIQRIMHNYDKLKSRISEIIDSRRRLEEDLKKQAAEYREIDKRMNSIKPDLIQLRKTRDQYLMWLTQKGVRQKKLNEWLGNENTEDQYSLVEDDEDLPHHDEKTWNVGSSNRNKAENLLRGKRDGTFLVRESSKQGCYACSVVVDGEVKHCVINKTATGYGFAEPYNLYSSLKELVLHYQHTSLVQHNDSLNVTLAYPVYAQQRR
In the case of Y1327F, the “effect of a mutation on the interaction” value is reported as “with no effect”. For Y1130F, the “effect of a mutation on the interaction” value was “decreasing interaction”. In the case of Y1124F;Y1184F;Y1333F, the “effect of a mutation on the interaction” value is reported as “with no effect”. In the case of K861A, the “effect of a mutation on the interaction” value is reported as “disrupting interaction”. With Y1309F the “effect of a mutation on the interaction” value was “with no effect”.

Variants of: B1
Details: with p85a_human PIK3R1, P27986
Remark: another data set of the same source
Y1213F was tested, and the “effect of a mutation on the interaction” value was “disrupting interaction”. Y1130F was tested, and the “effect of a mutation on the interaction” value was “with no effect”.
